According to US20160271230A1 (UNIVERSITY HEALTH NETWORK, published 2016):
No end group written: not given here.

Experiments:
[1] = biological target: T1, His-tagged 6FNIII-domain of Neogenin (Gallus gallus, UniProt Q90610 429-1036); test: complementary plate assay, RGMa peptides fused with AP (FIG. 9)
T1 construct: also called His-6FNIII; His-FNIII; not shown: His tag
T1 sequence: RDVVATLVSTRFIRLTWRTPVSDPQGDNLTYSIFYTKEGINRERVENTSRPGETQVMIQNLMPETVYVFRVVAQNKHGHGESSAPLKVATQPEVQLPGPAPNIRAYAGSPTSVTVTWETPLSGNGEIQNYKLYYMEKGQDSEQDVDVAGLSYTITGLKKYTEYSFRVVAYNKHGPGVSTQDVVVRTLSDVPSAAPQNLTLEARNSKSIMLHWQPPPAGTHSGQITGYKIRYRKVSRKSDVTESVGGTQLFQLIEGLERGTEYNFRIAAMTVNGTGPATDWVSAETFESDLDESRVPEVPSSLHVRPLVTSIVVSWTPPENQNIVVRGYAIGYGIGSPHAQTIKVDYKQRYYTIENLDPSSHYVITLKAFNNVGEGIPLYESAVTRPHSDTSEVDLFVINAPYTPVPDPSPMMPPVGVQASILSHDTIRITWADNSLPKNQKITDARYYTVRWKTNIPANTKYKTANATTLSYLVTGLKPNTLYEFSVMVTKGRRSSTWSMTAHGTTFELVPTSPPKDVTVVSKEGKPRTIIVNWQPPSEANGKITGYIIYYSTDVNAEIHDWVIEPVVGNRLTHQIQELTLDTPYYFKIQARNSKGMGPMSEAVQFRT
Protocol: (§1) (A) Different RGMa-AP proteins were incubated on wells coated with the 4Ig 6FNIII or BSA. […] Data were average±SEM (n=3 independent experiments), *p<0.005. (B) Quantification of a binding assay where 4Ig-AP and 6FNIII-AP proteins were assayed on wells coated with proteins from different RGMa regions. […] C-RGMa proteins and full length RGMa only bound 6FNIII. Data were average±SEM (n=3 independent experiments), *p<0.005. […] Quantification of a binding assay where N-RGMa-AP was assayed on wells coated with proteins DCC-4Ig and Neogenin-4Ig. In this experiment Neogenin-4Ig but not DCC-4Ig interacted with N-Raft-AP. Data were average±SEM (n=4 independent experiments), *p<0.005. (D) Cis-interaction between the 4Ig domain of Neogenin and N-Raft is required for localization of Neogenin in lipid rafts. HEK-293 cells were transfected with Neogenin and RGMa constructs. BMP2 (100 nM) was added to the medium 1 hour before cells were collected. Western blotting was performed following lipid raft fractionation. Flotillin was used as a marker for lipid raft fractions, whereas the transferrin receptor (TfR) was used as a marker for heavy membrane-fractions. Every experiment was repeated twice. […] In the first set of experiments, cells were only transfected with Neogenin. […]

[2] = biological target: T2, His-tagged 4Ig-domain of Neogenin (Gallus gallus, UniProt Q90610 1-383); test: complementary plate assay, RGMa peptides fused with AP on coated Neogenin domains (FIG. 9)
T2 construct: Secreted from transfected cells, purified on Ni-NTA; also called His-4Ig; Neogenin-4Ig; not shown: 6-His tag at the N-terminus; myc and 6-His tags of the pSectag 2B vector at the C-terminus
T2 sequence: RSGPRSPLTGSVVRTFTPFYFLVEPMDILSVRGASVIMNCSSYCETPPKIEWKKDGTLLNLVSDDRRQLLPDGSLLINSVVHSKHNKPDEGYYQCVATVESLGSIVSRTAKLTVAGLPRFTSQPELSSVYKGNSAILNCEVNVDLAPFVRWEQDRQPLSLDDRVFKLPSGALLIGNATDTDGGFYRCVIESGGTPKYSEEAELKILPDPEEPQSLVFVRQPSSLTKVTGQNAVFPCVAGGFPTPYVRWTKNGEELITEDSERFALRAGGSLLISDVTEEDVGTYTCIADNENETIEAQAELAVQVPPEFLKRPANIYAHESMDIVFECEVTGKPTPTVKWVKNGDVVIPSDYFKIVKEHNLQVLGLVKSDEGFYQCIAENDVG
Protocol: as §1

binding result [1]: binds | binding result [2]: no binding
B1: N-inh fused with alkaline phosphatase (peptide)
chain: GDLAYHSAVHGIDDLMVQHNCSKDGPTSQPRLRTLPP
modifications: also: alkaline phosphatase tag, sequence and position not given here
notes: also called N-inh-AP; not shown: alkaline phosphatase (AP)
